Measured values taken from PMC4072508, “Genome-Wide Prediction and Validation of Peptides That Bind Human Prosurvival Bcl-2 Proteins” (PLoS Computational Biology, 2014).

Experiments:
Assay in all cases: peptide SPOT array, c-Myc-tagged receptor at 1 uM or 100 nM, anti-c-Myc-Cy3
Bfl-1, Q16548 = target: T1, Bfl-1, Q16548
T1 chain: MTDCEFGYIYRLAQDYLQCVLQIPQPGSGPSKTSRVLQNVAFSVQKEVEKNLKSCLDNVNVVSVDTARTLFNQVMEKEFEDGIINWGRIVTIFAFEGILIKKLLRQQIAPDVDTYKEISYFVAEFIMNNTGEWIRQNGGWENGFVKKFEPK

Bcl-xL, Q07817 = target: Bcl-xL, Q07817
Bcl-w, Q92843 = target: T2, Bcl-w, Q92843
T2 chain: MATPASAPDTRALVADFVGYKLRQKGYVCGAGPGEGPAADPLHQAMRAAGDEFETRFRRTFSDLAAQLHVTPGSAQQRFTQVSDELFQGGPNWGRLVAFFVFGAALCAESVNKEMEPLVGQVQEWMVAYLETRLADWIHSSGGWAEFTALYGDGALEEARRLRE

Mcl-1, Q07820 = target: T3, Mcl-1, Q07820
T3 chain: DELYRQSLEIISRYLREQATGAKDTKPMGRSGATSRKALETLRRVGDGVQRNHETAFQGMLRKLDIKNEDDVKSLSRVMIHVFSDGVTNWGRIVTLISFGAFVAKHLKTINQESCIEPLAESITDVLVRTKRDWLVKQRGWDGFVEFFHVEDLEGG

Bcl-2, P10415 = target: Bcl-2, P10415
Sequence of Bcl-2, P10415 (P10415 1-217): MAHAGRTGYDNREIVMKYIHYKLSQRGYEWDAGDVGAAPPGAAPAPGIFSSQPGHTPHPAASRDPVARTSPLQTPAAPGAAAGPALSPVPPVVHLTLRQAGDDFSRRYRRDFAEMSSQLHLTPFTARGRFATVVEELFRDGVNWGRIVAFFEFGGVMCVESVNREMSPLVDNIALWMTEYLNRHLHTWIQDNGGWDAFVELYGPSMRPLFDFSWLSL

Sequence of Bcl-xL, Q07817 (Q07817 1-209): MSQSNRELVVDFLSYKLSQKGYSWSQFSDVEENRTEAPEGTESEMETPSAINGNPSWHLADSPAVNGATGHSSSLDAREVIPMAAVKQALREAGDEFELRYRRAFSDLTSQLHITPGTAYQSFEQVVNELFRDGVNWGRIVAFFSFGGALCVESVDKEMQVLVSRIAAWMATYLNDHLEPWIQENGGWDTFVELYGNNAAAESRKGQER

Row | Binder | SPOT signal as a fraction of Bim BH3's signal on the same receptor and array (Bfl-1, Q16548) | SPOT signal as a fraction of Bim BH3's signal on the same receptor and array (Bcl-xL, Q07817) | SPOT signal as a fraction of Bim BH3's signal on the same receptor and array (Bcl-w, Q92843) | SPOT signal as a fraction of Bim BH3's signal on the same receptor and array (Mcl-1, Q07820) | SPOT signal as a fraction of Bim BH3's signal on the same receptor and array (Bcl-2, P10415)
1 | AYRGRGIAKHLAKAALDFVVEEDLKA [C17orf103] | 0.11 | 0.36 | 0.29 | 0.07 | 0.05
2 | VKVLGKAVHSLSRIGDELYLEPLEDG [RAD9A] | 0.03 |  | 0.02 |  | 0.01
3 | AGLDMNISQFLKSLGLEHLRDIFETE | 0.03 |  | 0.02 |  | 0.01
4 | VKVFGKAVQALSRISDEFWLDPSKKG [RAD9B] | 0.23 |  | 0.89 |  | 0.1
5 | SGEFARICRDLSHIGDAVVISCAKDG [PCNA] | 0.03 |  | 0.03 |  | 0.01
6 | PFDCRDYAVVLRKYADKIYNISMKHP [FOLH1B] | 0.63 |  | 1.25 |  | 0.36
7 | HVDGLHSSEELRNLGWDFSQEKPSTT [SETD2] | 0.02 |  | 0.02 |  | 0.01
8 | MEGSDALALRLACIGDEMDVSLRAPR [BIK] | 0.43 |  | 0.74 |  | 0.72
9 | EQILAKIVELLKYSGDQLERKLKKDK [BCL2L14] | 0.75 |  | 0.74 |  | 0.49
10 | EGTKIVLGKQLIESADEVRRKSLVLK [TAF1] | 0.34 |  | 0.48 |  | 0.07
11 | HPKRKQVTELLLRKGANVNEKNKDFM | 0.48 |  | 0.5 |  | 0.13
12 | FQQLRHRIQDLEQLAKEQDKESEKQL [BNIP1] | 0.08 |  | 0.04 |  | 0.02
13 | KGKIDVCIVLLQHGADPNIRNTDGKS | 0.1 |  | 0.03 |  | 0.02
14 | WLKGDILGEKLVNLADCLCNEDLESR | 0.06 | 0.07 |  | 0.05 | 
15 | AFGLGDLPNLLGLVLDQLGDTERKRR [ADAMTS14] | 0.05 | 0.07 |  | 0.06 | 
16 | VLLTLLVAAVDRCQGQDVQEAGSCVQ [COL2A1] | 0.03 | 0.05 |  | 0.05 | 
17 | SMRRNAMGVGLVFEADLFTTRHISHW [DNAH10] | 0.3 | 0.24 |  | 0.32 | 
18 | MEMYQPSAVVDQCGADSLSGDRLGCF [HDAC2] | 0.03 | 0.06 |  | 0.04 | 
19 | TRRSMVFARHLREVLDEFRSRHLNST [POFUT2] | 0.61 | 0.74 |  | 0.9 | 
20 | GYPFNDVCQWFIDRLDLIFVVFDPTK [SRL] | 0.05 | 0.06 |  | 0.05 | 
21 | WLKGDILGEKDVNLADCLCNEDLESR | 0.05 | 0.07 |  | 0.04 | 
22 | AELEVECATQDRRFGDKLNFRQKLLN [PMAIP1] | 0.07 | 0.06 |  | 0.05 | 
23 | ISSLDLLPYGLRYIAKVLKNSIHEKF [IQGAP2] | 0.64 | 0.8 |  | 0.57 | 
24 | LFWTPLLVVLLAGLGDTEAQQTTLHP [SGCA] | 0.04 | 0.06 |  | 0.04 | 
25 | NGGLLEFHKSDQEIGDKNDHWFDIDP [DZIP3] | 0.04 | 0.12 |  | 0.04 | 
26 | SQGKHGFTMADNAFGDMTNEEFRQMM [CTSL2] | 0.05 | 0.06 |  | 0.06 | 
27 | APEEDFFSIHDRIVGDWTEGLFNACG [CYBB] | 0.03 | 0.05 |  | 0.03 | 
28 | FVGYNSTGAELRHWLDMLANPRRPIA [SYT1] | 0.21 | 0.32 |  | 0.21 | 
29 | TSRINEVQVNDSLLGDDLLLPAQSTL [SPHKAP] | 0.03 | 0.05 |  | 0.03 | 
30 | CGEWTRRSLHLRVLGRQLILPTDKGV [FAM149A] | 0.7 | 1.07 |  | 0.76 | 
